Experimental findings from the nanobody polyreactivity screen of Harvey et al. (2022) are described below.

The nature of the data set: yeast display, Sf9 membrane polyspecificity reagent, FACS + sequencing; frameworks hold sequencing errors. An outline of the steps:
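In a synthetic yeast display library (Saccharomyces cerevisiae BJ5465), nanobody expression was induced with galactose for 36–48 hours. FACS gates were set low and high (top ~1%) using anti-HA fluorescence for expression and streptavidin fluorescence for binding of the Sf9 membrane reagent. Each polyreactivity label is drawn from the gate of origin.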
Turning to “QVQLVESAGGLVQAGGSLRLSCAASGSIFYRYVMGWYRQAPGKERELVAAITSDGSTNYADSVKGRFTISRDNAKNTVYLQMNSLKPEDSAVYYCNARSYRGRFDYWGLGTQVTVSS”, the “polyreactivity (PSR sort gate)” value is recorded as “low polyreactivity”.

For the sequence “QVQLVESGGGLVQAGGSLRLSCAASGRIFVYYAMGWYRQAPGKERELVATISSGGSTYYADSVKGRFTISRDNAKNTVYLQMNSLKPEDTAVYYCAADNVNRYLAYYYKGDYWGQGTQVTVSS”, the “polyreactivity (PSR sort gate)” value was “low polyreactivity”.

For the sequence “QVQLVESGGGLVQAGGSLRLSCAASGLTFRRYAMGWYRQAPGKDRELVAAISRGDNTNYADSVKGRFTISRDNAKNTVYLQMTSLKPEDTAVYFCAPRLWIRGNFNYWGQATQVTVSS”, the “polyreactivity (PSR sort gate)” value is “high polyreactivity”.

Turning to “QVQLVESGGGLVQAGGSLRLSCAASGSIAKINAMGWYRQAPGKERELVAAINTGDSTYYADSVKGRFTISRDNAKNTVYLQMNSLKPEDTAVYYCAAEGSPNGYDYWGQGTQVTVSS”, the “polyreactivity (PSR sort gate)” value is reported as “low polyreactivity”.

Take “QVQIVESGGGLVQAGGSLRLSCAASGRTIYYYTMGWYIQAPGKERELVAAITHGGSTYYADSVKGRFTISRDNAKNTVYLQMNSLNPEDTAVYYCNAVYDYPYEYWGQGTQVTVSS”: the “polyreactivity (PSR sort gate)” value is “high polyreactivity”.

In the case of “QVQLVESGGGLVQAGGSLRLSCAASGRTFGNYAMGWYRQAPGKERELVADITRRGGSTSYADSVKGRFTISRDNAKNTVYLQMNSLKPEDTAVYYCNADSYLPAIRYDYWGQGTQVTVSS”, the “polyreactivity (PSR sort gate)” value is listed as “low polyreactivity”.

On to “QVQLVESGGGLVQAGGSLRLSCAASGITFWANAMGWERQAPGKERELVASIRSSGGSTYYADSVKGRFTISRDNAKNTVYLQMYSLKPEDTAVYYCYAKRTGPWFLHVPVYYWGQGTQVTVSS”, for which the “polyreactivity (PSR sort gate)” value is “low polyreactivity”.

Consider “QVQLVESGGGLVQSGGSLRLSCVASGRTFRWYPMGWYRQEPGKERELVATITLNGGSTYYADSVKGRFTISRDNEKNTVYLQMNSLKPEDTAVYYCNRGTNVVRRGVYSFGYDYWGHGTQVTVSS”, for which the “polyreactivity (PSR sort gate)” value is given as “low polyreactivity”.

On to “QVQLVESGGGLVQAGGSLRLSCAASGRIFISYTMGWDRQAPGKERELVAGIDSSGTSTYYADSVKGRFTISRDNAKNTVYLQMNSLKPEDTAVYYCNVDGNWKDTSTELDYWGQGTQVTVSS”, for which the “polyreactivity (PSR sort gate)” value is on record as “low polyreactivity”.

For the sequence “QVQLVESGGGLVQAGVSLRLSCAASGRIFNGNAMGWYRQAPGIEWELVATITRGGGSTYYADSVKGRFTISRDNAKKTVYLQMNSLKPEDTAVYSCNVPPPTQVRYRSDHWGQGTQVTVSS”, the “polyreactivity (PSR sort gate)” value is reported as “low polyreactivity”.

For “QDQLVETVGVLDKAGGSLRLSCAASGRTFAIYAMAWYRQAPGKEREFVAASSWSGGDSYYADSVKGRFTISRDNAKNSVYLQMNSLKPEHTAVYYCAARDNDYEGRYLQYDLDYWGQGTQVTVST”, the “polyreactivity (PSR sort gate)” value is “low polyreactivity”.

Consider “QVQLVESGGGLVQAGGSLRLSCAASGSTFYYYAMGWYRQAPGKERELVAAITIGGSTNYADSVKGRFTISRDNAKNTVYLQMNSLKPVDTAVYYCAADYRITYARDFDYWGQGTQVTVSS”, for which the “polyreactivity (PSR sort gate)” value is given as “low polyreactivity”.

Regarding “QVQLVESGGGLVQAGGSLRLSCAASGSIFYGYTMGWYRQEPGKERELVAAIRKSGGSTNYADSVKGRFTISRDNAKNTVFLQMNSLKPEDTAVYYCAAAYYRGRGYYWGQGTQVTVSS”, the “polyreactivity (PSR sort gate)” value is listed as “high polyreactivity”.

On to “QVQLVESGGGLVQAGGSLRLSCAASGSTFARNVMGWYRHAPGKERELVAAITRSGGSTYYADSVKGRFTISRDNAKNTVYFQMNSLKPEDTAVYYCNRDFRGLAYSDRYDYWGQGTQVTVSS”, for which the “polyreactivity (PSR sort gate)” value was “low polyreactivity”.

Consider “QVQLVESGGGLVQAGGSLRLSCAASGRIFQAYAMGWYRQAPGKERELVAAISRSGGGTYYADSVKGRFTISRDNAKNTVYLQMNCLKPEDTAVYYCNARGSTARGRGYWGQGTQVTVSS”, for which the “polyreactivity (PSR sort gate)” value is “high polyreactivity”.

Take “QVQLVESGGGLVQAGGSLRLSCAASGRIFGRNAMGWYRQAPGKERELVAAISRRSVSTYYADSVKGRFTISRDIAKNTVYLQMNSLKPEETAVYYCAARKSLTTPYGYWGQGTQVTVSS”: the “polyreactivity (PSR sort gate)” value is recorded as “high polyreactivity”.

On to “QVQLVESGGGLVQAGGSLRLSCAACGSILKQYAMGWYRQAPGKERVLDAAITWRGTGTYYADSVKGRFTISRDNAKKTVYLLMNSLQAEDTAVSYCAAKWYRRTYGYLPYTGIVNYDYWGQGTQLTVSS”, for which the “polyreactivity (PSR sort gate)” value was “high polyreactivity”.

For the sequence “KVQLVESGGGLVQAGGSLRISCAASGSIFGYYTMGWYRQAPGKERELVARITRGGSTYYADSVKGRFTISRDNAKNTVYLHMNSLKPEDTAVYFCNADSRYRYEYWGLGTQVTVSS”, the “polyreactivity (PSR sort gate)” value is on record as “low polyreactivity”.

Take “QVQLVESGGGLVQAGGSLRLSCAASGITFYLYVMGWYRQAPGKERELVAAISSGGSTYYADSVKGRFTISRDNAKNTVYLQMNSLKPEDTAVYYCAADVARYLHYSYHEDYYWGQGTQVTVSS”: the “polyreactivity (PSR sort gate)” value is “low polyreactivity”.

As to “QVQLVESGGGLVQAGGSLRLSCAASGSIFPDNTMGWYRQAPGKERELVAAIDGRGGTTYYADSVKGRFTISRDNAKNTVYLQMNSLKPEDTAVYYCNAGVWTYWHIEMDYWGQGTQVTVSS”, the “polyreactivity (PSR sort gate)” value is “low polyreactivity”.

On to “QDQHVESVGGLVQAGGSLRFSCAASGSTFTRYAMGWYRQAPGKERELVAAIDGGGGSTSYADSVKGRFTISRDNAKNTVYLQMNSLKPEDTAVYYCAAPLDTSSSIFDYWGQGTQVTVSS”, for which the “polyreactivity (PSR sort gate)” value is “low polyreactivity”.

For “QVQLVESGGVLLQAGGSLRLSCAASGTIQYIKTMGWYRQAPGKERELVAAITYSGGSTYYADSVKGRFTISRDNAKNTVYLQRNSLKPVVTAVYYCAGDGYYGGYNYWGQGTQVTVSS”, the “polyreactivity (PSR sort gate)” value is recorded as “low polyreactivity”.

With “QVQLVESGGGLVQAGGSLRLSCAASGSIFRVYAMGRYRQAPGKEREFVAAISYSTGSTYADSVKGRFTISRDNAKNTVYLQMNSLKPEDTAVYYCNARLRYGSRDEYDYWGQGTQVTVSS”, the “polyreactivity (PSR sort gate)” value was “low polyreactivity”.

As to “QVQLVESGGGLVQAGGSLPLSCASYGSIIVGNVMGWYRQAPGKESELVAAMTSSGTSTFYADSVKGRFTNSRDIAKNTVYLQMNSLKPEVTAVYYCAVDLYWSYFNGSLGYRYYFWGQGTQLTVSS”, the “polyreactivity (PSR sort gate)” value was “high polyreactivity”.

With “QVQLVESGGGLVQAGGSLRLSCAPSGRIFHQYAMGFYRKSPGKERELVAAITWSGGSTHYADSVKGRYTISRDNAKNTVYLQLNSLKPEDTAVYYCAARKSGGLLDYWGQGTQVTVSS”, the “polyreactivity (PSR sort gate)” value is listed as “low polyreactivity”.

As to “QVQLVESGGGLVQAGGSLRLSCAASGFTFEIYAMGWYSQAPGKVRELVAAISKSGGSTYYADSVKGRFTISRDNAKKRVYLQMNSLKPEDSSVYSCAARYKALYDYWGQGTQVTVSS”, the “polyreactivity (PSR sort gate)” value was “high polyreactivity”.

In the case of “QVQLVESGGGLVQAGGSLRLSCAASGSTFEAYAMGWYRQAPGKERELVAAITRGSTYYADSVKGRFTISRDNAKNTVYLQMNSLKPEDTAVYYCNVDYSYNSGYDYWGQGTQVTVSS”, the “polyreactivity (PSR sort gate)” value is given as “high polyreactivity”.

Consider “QVQLVESGGGLVQAGGSLRLSCAASGNIFWRYGMGWYRQAPGKERELVAAITSGGTGTYYADSVKGRFTISRDNAKNTVYLQMNSLKPEDTAVYYCAARRWTNHYFYGWFYYWGQGTQVTVSS”, for which the “polyreactivity (PSR sort gate)” value was “high polyreactivity”.

As to “QVQLVESGGGLVQAGGSLRLSCAASGSTIYTYALGWYRQAPGKERELVAAIRGRGGRTYYADSVKGRFTISRDNAKNTVYLQMNSLKPEDTAVYYCNADGYAYYRATTRFDYWGQGTQVTVSS”, the “polyreactivity (PSR sort gate)” value was “high polyreactivity”.

In the case of “QLQLVESGGGLVQAGGSLRLSCAASGRTFRSYTMGRYRQAPGKERELVASITRSGVSTYYADSVKGRFTISRDNAKNTVYLQMNSLKPEDTAVYYCAAYSVFRSYDYWGQGTQVTVSS”, the “polyreactivity (PSR sort gate)” value is given as “high polyreactivity”.

Turning to “QVQLVESGGGLVQAGGSLRLSCSASGSTFHYNAMGWYRQAQGKERELVAYISWRGASKYDADSVKGRFTISRDNAKNTVYLQMSSMKTEDTAVFFFNAVLTSYWYNSYKSRGDYWGQGTLVTVSS”, the “polyreactivity (PSR sort gate)” value was “high polyreactivity”.

As to “QVQLVESGGGLVQAGGSLRLSCAASGSISNRNAMGWYRQAPGKERELVAAITYSGGSTYYADSVKGRFTISRDNAKNTVYLQMNSLKPEDTAVYYCAKDHYRFRYDYWGQGTQVTVSS”, the “polyreactivity (PSR sort gate)” value is listed as “low polyreactivity”.

For the sequence “QVQLVESGGGLVQAGGSLRLSCAASGSTFLVNAMGWYRQAPGKERELVAAITQSGGSTFYADSVKGRFTISRDNEKNTVYLQMNSLKPEDTAVYYWGQGTQVSVSS”, the “polyreactivity (PSR sort gate)” value was “low polyreactivity”.

As for “QVQLVESGGGLVQAGGSLRLSCAASGSTFFYNAMGWYRQAPGKERELVAAITYRGGRTYYADSVKGRFTISRDIAKNTVYLQMKSLNPEDTSVYYCHAYPLYRVPDRLVVSDGNYWGQGTQVTVSS”, the “polyreactivity (PSR sort gate)” value is reported as “low polyreactivity”.

As for “QVQLVESGGGLVQAGGSLRLSCAASGRIFQGYVMGWYRQAPGKERELVAAITTGGSTYYADSVKGRFTISRDNAKNTVYLQMNSLKPEDTAVYYCAAKPTRSRKIYEYWGQGTQVTVSS”, the “polyreactivity (PSR sort gate)” value is given as “low polyreactivity”.

On to “QVQLVESGGGLVQAGGSLRLSCAASGSTFYGYAMGWYRQAPGKERELVAAISSSGTRTYYADSVKGRFTISRDNAKNTVYLQMNSLKPEDTAVYYCNAYYYIPFEGRGYSKMDYWGQGTQVTVSS”, for which the “polyreactivity (PSR sort gate)” value is “high polyreactivity”.

As for “QVQLVESGGGLVQAGGSLRLICAASGFSFRYYDMGWYRQAPGKERELVAAISRSGGRTYYADSVKGRFTISRDNAKNSVYLQMNSLNPEDTAVYYCNAVYNVVLSRVIYARGYWGQGTQVTVSS”, the “polyreactivity (PSR sort gate)” value is listed as “high polyreactivity”.

With “QVQLVESGGGLVQAGGSLRLSCAASGSTFGHYTMGWYRQAPGKERELVAAITYSGGRTYYADSVKGRFTISRDNAKNTVYLQMNSLKPEDTAVYYCNAKSFRILDNFAYRVDYDYWGQGTQVTVSS”, the “polyreactivity (PSR sort gate)” value was “low polyreactivity”.

Turning to “QVQLVESGGGLVQAGGSLRLSCAASGRTFSTNAMGWYRQAPGKEREFVAAITGSGGSTYYADSVKGRFTISRDNAKNTVYLQMNSLKPEDTAVYYCAKRSAWHTYRYGYWGQGTQVTVSS”, the “polyreactivity (PSR sort gate)” value is given as “high polyreactivity”.

For “QVQLVESGGGLVQAGGSLRLSCAASGRTFVFNAMGWYRQAPGKERELVAAITKNGGSTYYADSVKGRFTISRDNAKNTVYLQMNSLKPEDTAVYYCAVRRGYPFYYWGQGTQVTVSS”, the “polyreactivity (PSR sort gate)” value is “low polyreactivity”.

Regarding “QVQHVESGGGLVQAGGSLRLSCAASGSIFTGNAMGWYRQAPGKERELVAAISSSGGSTYYADSVKGRFTISRDNAKNTVYLQMNSLKPEDTAVYYCAAYNYFLQYDYWGQGTQVTVSS”, the “polyreactivity (PSR sort gate)” value is “low polyreactivity”.
